From US20230046828A1 (OXFORD UNIVERSITY INNOVATION, published 2023) come the findings set out here.

Test [1] concerns the target T1, CXCL12 (CXC Ligand 12) (UniProt O62657 22-89).
T1 construct: mature; Untagged in BLI and NMR; CXCL12-His6 was used at 1 µM on the HMGB1 SPOT peptide arrays; also called CXCL12A-c021, wt 1-67, no tag; CXCL12-His6
The test is described as follows: BLI, biotinylated HMGB1 construct on streptavidin sensor, CXCL12 0-150 µM in solution; kinetics rates derived from interferogram. The protocol:
(§1) Pre-hydrated streptavidin Octet Biosensors (FortéBio 18-5019) were coated with 4 μM solutions of biotinylated HMGB1 proteins in 10 mM HEPES, pH 7.5, 150 mM NaCl (Base buffer-BB) plus, 0.5 mM TCEP (60″ baseline, 60″ binding). Nonspecific binding was minimized by incubation for 3′ in BB+1% BSA+0.05% Tween-20 (Kinetics Buffer, KB) prior to kinetics assays. […] An OctetRed 384 instrument was used for these experiments. Kinetics data were extracted with DataAnalysis 9.0 (FortéBio). Response at equilibrium REq was plotted against concentration in a Michaelis-Menten saturation plot to calculate kD/Bₘₐₓ (saturation plot of concentration against rEq). Kinetic rates (association rate; kₒₙ and dissociation rate; koff) were derived from the direct measurements of each parameter from all the association and dissociation steps in the interferogram, and fitted to a horizontal line (mean) across all measurements. Data from each replicate run were pooled in the same manner to calculate the overall mean. For measuring RAGE binding kinetics to HMGB1, 15 μg/mL RAGE-Fc in PBS+0.1% BSA+0.02% Tween-20 was immobilized on the surface of anti-IgG biosensors (AHC, 18-5060) over 30″ and dipped in serial concentrations of each HMGB1 construct (60″ baseline, 200″ association/dissociation) and fitted in the same manner to derive kinetic parameters.
A general note: BLI is a label-free optical method that tracks binding on a fibre tip over time.

For test [2], the target named is T1, CXCL12 (CXC Ligand 12). The test is described as follows: BLI, biotinylated HMGB1 construct on streptavidin sensor, CXCL12 0-150 µM in solution; Michaelis-Menten (saturation) Req fit. The protocol:
as §1

For test [3], the target named is T2, RAGE-Fc chimera protein (BioTechne, 1145-RG) (UniProt Q15109 24-344).
T2 construct: Bought reagent; also called Fc-RAGE; not shown: CH domain of IgG (Fc)
T2 sequence (Q15109 24-344, change not shown): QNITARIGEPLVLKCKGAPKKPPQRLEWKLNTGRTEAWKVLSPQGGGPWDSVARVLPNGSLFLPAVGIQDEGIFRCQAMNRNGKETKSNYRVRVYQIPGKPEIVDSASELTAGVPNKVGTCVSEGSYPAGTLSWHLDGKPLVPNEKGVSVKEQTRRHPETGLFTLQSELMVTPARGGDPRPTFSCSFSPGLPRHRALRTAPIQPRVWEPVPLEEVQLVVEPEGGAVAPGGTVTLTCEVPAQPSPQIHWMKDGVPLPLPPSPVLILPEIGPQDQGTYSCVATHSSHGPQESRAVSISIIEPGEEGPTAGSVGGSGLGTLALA
The test is described as follows: BLI: RAGE-Fc on AHC sensors, HMGB1 construct 0-25 µM in solution; kinetics plot. The protocol: (§2) RAGE-Fc was immobilized in the surface of AHC sensors and dipped in rising concentration of different HMGB1 constructs. Two experiments were run with different concentration ranges: the three columns of graphs in the left, 0 to 22.22 μM HMGB1 over 9 steps; on the right, 0 to 25 μM over 7 steps. Both are color-coded by concentration (top). Colors indicate the specific construct concentration. Each graph corresponds to a single sensor (replicate).
as §1

The target in test [4] is T2, RAGE-Fc chimera protein (BioTechne, …). Kind of test: BLI: RAGE-Fc on AHC sensors, HMGB1 construct 0-25 µM in solution; saturation fit. The protocol:
as §2, §1

Test [5] has the same target. Kind of test: hybrid ELISA: HMGB1 construct coated, RAGE-Fc titrated, anti-human IgG-HRP, OD450 normalized to DS-HMGB1; saturation fit (Kd cell: Invalid fit). The protocol:
(§3) Nonspecific binding was blocked by incubation with 10% BSA in PBS for 2 h, at 20-25° C. A concentration range of RAGE-Fc chimera protein (BioTechne, 1145-RG; 0-640 nM in 1:4 dilutions) was added in 10% BSA/PBS and allowed to bind for 2 h, at 4° C. Bound FC chimera was detected by incubation with Anti-Human IgG HRP (Agilent Dako P021402-2) diluted 1:10000 in 1% BSA/PBS for 2 h, at 20-25° C. Between each of these 3 steps, the plate was washed with 100 μL PBST, three times.
(§4) OD 450 was measured as a readout (FluoStar OMEGA, BMG Labtech) and plotted as a saturation fit against 2× RAGE-Fc concentration (as the chimera is a RAGE dimer).

The target is the same in test [6]. Kind of test: hybrid ELISA: HMGB1 construct coated, RAGE-Fc titrated, anti-human IgG-HRP, OD450 normalized to DS-HMGB1; saturation fit. On the procedure: as §3, §4
A general note: In an ELISA, binding on a coated surface is turned into a signal by an enzyme label.

Test [7] has the same target. Kind of test: BLI, RAGE-Fc on AHC sensors. On the procedure: as §1

T1 sequence (P48061 22-89): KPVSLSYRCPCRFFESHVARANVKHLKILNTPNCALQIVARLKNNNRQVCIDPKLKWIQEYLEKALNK

B1: FR-HMGB1 Box A 8-78 (helical-only) (ligand)
chain: PRGKMSSYAFFVQTCREEHKKKHPDASVNFSEFSKKCSERWKTMSAKEKGKFEDMAKADKARYEREMKTYI
modifications: biotinylated in BLI
notes: also called minimal Box A 8-78; c027; not shown: biotinylation tag (BLI) or His6 tag (reverse peptide array)
The term Kd denotes the free concentration of one partner at which half of the binding sites on the other are occupied at equilibrium, for simple one-to-one binding. Low values mean higher affinity, high ones lower affinity. Broadly, the koff is a measure of how fast the partners let go of each other. Low readings indicate a long-lived complex, high ones a short-lived complex. A word on the kon: it is the rate constant with which the complex forms. A higher kon goes with faster complex formation. In the test with CXCL12 (CXC Ligand 12) [1], B1 displayed an equilibrium dissociation constant (Kd) of 18.7 µM, a dissociation rate constant (koff) of 0.312 s⁻¹ and a kon of 17000 M⁻¹ s⁻¹. The molecule further returned a dissociation constant (Kd) with CXCL12 (CXC Ligand 12) [2] of 17.5 µM.

B2: FR-HMGB1 Box A 1-88 (full HMG Box with flanking regions) (ligand)
chain: GKGDPKKPRGKMSSYAFFVQTCREEHKKKHPDASVNFSEFSKKCSERWKTMSAKEKGKFEDMAKADKARYEREMKTYIPPKGETKKKF
modifications: biotinylated in BLI
notes: also called extended box A 1-88; c037; not shown: biotinylation tag
For the molecule B2, in the test with CXCL12 (CXC Ligand 12) [1], the Kd was 6.1 µM, the koff was found to be 0.079 s⁻¹ and the kon came out at 13000 M⁻¹ s⁻¹. Also, the affinity with CXCL12 (CXC Ligand 12) [2], expressed as Kd, was 12.6 µM.

B3: DS Box A 1-88 (full HMG Box construct with flanking regions) (ligand)
chain: GKGDPKKPRGKMSSYAFFVQTCREEHKKKHPDASVNFSEFSKKCSERWKTMSAKEKGKFEDMAKADKARYEREMKTYIPPKGETKKKF
modifications: oxidized (disulfide Cys 22-Cys 44)
notes: also called oxidized Box A alone
In the case of B3, in test [3], binding was put at a Kd of 15.6 µM, the off-rate constant (koff) turned out to be 0.439 s⁻¹ and the on-rate constant (kon) was 28000 M⁻¹ s⁻¹. The molecule further returned a Kd in test [4] of 53.4 µM. The molecule further had a Bmax in test [5] of 0.08 nM.

B4: DS-HMGB1 1-184 (ligand)
chain: GKGDPKKPRGKMSSYAFFVQTCREEHKKKHPDASVNFSEFSKKCSERWKTMSAKEKGKFEDMAKADKARYEREMKTYIPPKGETKKKFKDPNAPKRPPSAFFLFCSEYRPKIKGEHPGLSIGDVAKKLGEMWNNTAADDKQPYEKKAAKLKEKYEKDIAAYRAKGKPDAAKKGVVKAEKSKKKK
modifications: oxidized Box A (disulfide Cys 22-Cys 44)
The molecule B4 yielded a Kd in test [6] of 0.0339 µM. In test [3], this molecule returned a dissociation constant Kd of 0.2 µM, an off-rate (koff) of 0.067 s⁻¹ and an on-rate (kon) of 349000 M⁻¹ s⁻¹. This molecule returned a Kd in test [4] of 0.5 µM.

B5: DS-HMGB1 1-164 (ligand)
chain: GKGDPKKPRGKMSSYAFFVQTCREEHKKKHPDASVNFSEFSKKCSERWKTMSAKEKGKFEDMAKADKARYEREMKTYIPPKGETKKKFKDPNAPKRPPSAFFLFCSEYRPKIKGEHPGLSIGDVAKKLGEMWNNTAADDKQPYEKKAAKLKEKYEKDIAAYRAK
modifications: oxidized Box A (disulfide Cys 22-Cys 44)
In test [3], B5 came in with a Kd of 0.9 µM, an off-rate (koff) of 0.152 s⁻¹ and a kon of 178000 M⁻¹ s⁻¹. In test [4], the equilibrium dissociation constant (Kd) is 3.1 µM. In addition, in test [5], the Bmax is 0.2 nM.

B6: FR-HMGB1 Box B 94-162 (helical-only) (ligand)
chain: PKRPPSAFFLFCSEYRPKIKGEHPGLSIGDVAKKLGEMWNNTAADDKQPYEKKAAKLKEKYEKDIAAYR
modifications: also: biotin or His6 tag in some assays, sequence not given here
notes: also called HMGB1A-c028; not shown: C-terminal Avi / biotinylation tag (BLI, NMR) or His6 tag (reverse peptide array)
B6: in the test with CXCL12 (CXC Ligand 12) [1], the equilibrium dissociation constant (Kd) worked out at 39 µM, the koff is 0.64 s⁻¹ and the on-rate (kon) stood at 16000 M⁻¹ s⁻¹. Besides, the affinity in the test with CXCL12 (CXC Ligand 12) [2], expressed as Kd, was 65 µM.

B7: fully-reduced HMGB1, full-length (1-214) (ligand)
chain: GKGDPKKPRGKMSSYAFFVQTCREEHKKKHPDASVNFSEFSKKCSERWKTMSAKEKGKFEDMAKADKARYEREMKTYIPPKGETKKKFKDPNAPKRPPSAFFLFCSEYRPKIKGEHPGLSIGDVAKKLGEMWNNTAADDKQPYEKKAAKLKEKYEKDIAAYRAKGKPDAAKKGVVKAEKSKKKKEEEEDEEDEEDEEEEEDEEDEDEEEDDDDE
modifications: cysteines reduced (Cys 22, Cys 44, Cys 105)
notes: Tags differ by assay: biotinylated (c011) in BLI with CXCL12, His6-tagged in the reverse peptide array, TEV-cleaved in the RAGE ELISA and BLI; also called FR-HMGB1; FR FL-HMGB1 (c011)
On to B7, for which the Kd in test [6] is 0.0861 µM; with CXCL12 (CXC Ligand 12) [1], 20.9 µM; in test [3], 0.8 µM; in test [4], 2.3 µM; with CXCL12 (CXC Ligand 12) [2] it was 15.3 µM. For the same molecule, the koff in the test with CXCL12 (CXC Ligand 12) [1] was 0.181 s⁻¹; in test [3], 0.041 s⁻¹. Further, the kon with CXCL12 (CXC Ligand 12) [1] is 9000 M⁻¹ s⁻¹; in test [3], 51000 M⁻¹ s⁻¹.

B8: disulfide HMGB1, full-length (ligand)
chain: GKGDPKKPRGKMSSYAFFVQTCREEHKKKHPDASVNFSEFSKKCSERWKTMSAKEKGKFEDMAKADKARYEREMKTYIPPKGETKKKFKDPNAPKRPPSAFFLFCSEYRPKIKGEHPGLSIGDVAKKLGEMWNNTAADDKQPYEKKAAKLKEKYEKDIAAYRAKGKPDAAKKGVVKAEKSKKKKEEEEDEEDEEDEEEEEDEEDEDEEEDDDDE
modifications: disulfide bond between Cys 22 and Cys 44
notes: also called DS-HMGB1; FL-DS-HMGB1
On to B8, for which the Kd is 0.00435 µM in test [6], 0.2 µM in test [3], 1.3 µM in test [4] and 0.2 to 1.3 µM in test [7]. Further, in test [3], the koff came out at 0.043 s⁻¹. The molecule also returned a kon in test [3] of 215000 M⁻¹ s⁻¹.

B9: non-oxidizable 3S-HMGB1, full-length (1-214) (ligand)
chain: GKGDPKKPRGKMSSYAFFVQTSREEHKKKHPDASVNFSEFSKKSSERWKTMSAKEKGKFEDMAKADKARYEREMKTYIPPKGETKKKFKDPNAPKRPPSAFFLFSSEYRPKIKGEHPGLSIGDVAKKLGEMWNNTAADDKQPYEKKAAKLKEKYEKDIAAYRAKGKPDAAKKGVVKAEKSKKKKEEEEDEEDEEDEEEEEDEEDEDEEEDDDDE
notes: Biotinylated (c022) in BLI with CXCL12, His6-tagged in the reverse peptide array; also called 3S-FL HMGB1 (c022)
On to B9, for which the Kd is 0.00722 µM in test [6]; 11.7 µM with CXCL12 (CXC Ligand 12) [1]; 0.9 µM in test [3]; 3 µM in test [4]; 8.79 µM in the test with CXCL12 (CXC Ligand 12) [2]. Besides, the dissociation rate constant (koff) with CXCL12 (CXC Ligand 12) [1] stood at 0.145 s⁻¹; in test [3], 0.015 s⁻¹. For the same molecule, the on-rate (kon) was determined as 12000 M⁻¹ s⁻¹ with CXCL12 (CXC Ligand 12) [1] and 17000 M⁻¹ s⁻¹ in test [3].

B10: dBB12L (double Box B HMGB1 construct with 12-residue linker) (ligand)
chain: KDPNAPKRPPSAFFLFCSEYRPKIKGEHPGLSIGDVAKKLGEMWNNTAADDKQPYEKKAAKLKEKYEKDIAAYRAKGKPDAAKKGVKDPNAPKRPPSAFFLFCSEYRPKIKGEHPGLSIGDVAKKLGEMWNNTAADDKQPYEKKAAKLKEKYEKDIAAYRAKGKPDAAKKGV
notes: also called dBB12L-HMGB1; dBB-HMGB1
As to B10, in test [3], the Kd came to 1.3 µM, the dissociation rate constant (koff) is 0.206 s⁻¹ and the on-rate constant (kon) is 164000 M⁻¹ s⁻¹. In test [4], this molecule had a Kd of 5.5 µM. The molecule also gave a Bmax in test [5] of 0.06 nM. In test [7], the “fold association rate against FR-HMGB1” value was 3 fold and the “fold dissociation rate against FR-HMGB1” value stood at 5 fold.

B11: FR-HMGB1 Box B 89-174 (full HMG Box with flanking regions) (ligand)
chain: SMKDPNAPKRPPSAFFLFCSEYRPKIKGEHPGLSIGDVAKKLGEMWNNTAADDKQPYEKKAAKLKEKYEKDIAAYRAKGKPDAAKKGV
modifications: biotinylated in BLI and NMR
notes: also called complete Box B; not shown: C-terminal biotinylation tag
In the case of B11, in the test with CXCL12 (CXC Ligand 12) [1], the Kd is 7.1 µM, the off-rate (koff) was 0.159 s⁻¹ and the association rate constant (kon) was 22000 M⁻¹ s⁻¹. Moreover, the Kd with CXCL12 (CXC Ligand 12) [2] came to 8.19 µM.
